Experimental data reported in the DeepSol protein solubility set.

Experiment: soluble on expression in E. coli; label from the status in PepcDB or PDB records
With “MSDDEAAVPGNKPIRLPKKAAKVKNKAPAQLQITAEQLLREAKERELELIPPAPKTKITDPDELKEYQRKKRKEFEDGIRKNRMQLANWIKYGKWEESIGEIQRARSVFERALDVDHRSISIWLQYAEMEMRCKQINHARNVFDRAITIMPRAMQFWLKYSYMEEVIENIPGARQIFERWIEWEPPEQAWQTYINFELRYKEIDRARSVYQRFLHVHGINVQNWIKYAKFEERNGYIGNARAAYEKAMEYFGEEDINETVLVAFALFEERQKEHERARGIFKYGLDNLPSNRTEEIFKHYTQHEKKFGERVGIEDVIISKRKTQYEKMVEENGYNYDAWFDYLRLLENEETDREEVEDVYERAIANIPPHSEKRYWRRYIYLWINYALYEELVAKDFDRARQVYKACIDIIPHKTFTFAKVWIMFAHFEIRQLDLNAARKIMGVAIGKCPKDKLFRAYIDLELQLREFDRCRKLYEKFLESSPESSQTWIKFAELETLLGDTDRSRAVFTIAVQQPALDMPELLWKAYIDFEIACEEHEKARDLYETLLQRTNHIKVWISMAEFEQTIGNFEGARKAFERANQSLENAEKEERLMLLEAWKECETKSGDQEALKRVETMMPRRVKKRRQIQTEDGVDAGWEEYFDYIFPQDQAAKGSFKLLEAAARWKREREEAAARAAQELDAPIPEGDDDEEKEEAGKDAEEKVREGDSDTDLSESSSSSDSESSSSSSSDSSDSSDDDEDK” the “soluble on expression in E. coli” value was “not soluble”.
In the case of “MSDICVIIAAYNAEATIAQAVTSALAEAEVAEVVVVDDASSDATAEAALAASDGSGRLIVERQAQNGGPSAARNRAVALSQAPRIAILDADDFFLPGRFARLDPDLDLAADNIVFVTPEHAARLDPTNLPAAPREVEMLDAERFALGNLAQGVHRGELGFLKPVMSRAFLTRHGLRYDERMWLGEDFDLYMRMLLLGARFGLTRAVGYAAVQRGASLSGRHRTADLAALEACCRAHLEMPASPATQEAMRRHLRQVQAKLLLRQFLDRKAEAGLGAALGFALAPPARFLPIAKGVARDKIAALRPPAPPRAERFLLPVLEHHHHHH”, the “soluble on expression in E. coli” value is reported as “not soluble”.
In the case of “MSDIERRHTIMAKGSVRKKGKKWYYRFYVEDASGNLVQKEYAGTESKSETEKLLRQAMDDYESKKFIAKSENITIGELLDIWAEEELKTGMLSNGTVQNYLGAITNIKKHPISERKLKNVTSEHLQAFFDLLSFGGTYPDGSERKGYSKDYIRSFSAVLQQSFRFAVSPKQYITFNPMQYIKLKYQTDEVDLFSDDDMDGDIQPIPREDYERLIEFLQNYNPPAILPIQIAYYAGLRIGEACGLAWQDVNLEEQCLTIRRSIRYDGSRHKNIIGPTKRKKVRIVDFGDTLAEILRNARKEQLKNRMQYGELYHKNYYREVKDKNRVYYEFYHLDGTENVPEDYKEISFVCLRPDGSLELPSTLGIVCRKIAQKLDGFEGFHFHQLRHTYTSNLLANGAAPKDVQELLGHSDVSTTMNVYAHSTRKAKRESARLLDKVAGND”, the “soluble on expression in E. coli” value is reported as “not soluble”.
For “MSDKLTEKTVKLDTPIMRGKTEITEIVLRKPQSGALRGTRLQAIMDMDVGAMMTVIPRISTPTLTAQEMAELDPADLTALSVEVVTFLLKKSVLAGLPTA”, the “soluble on expression in E. coli” value was “not soluble”.
In the case of “MSDKPHRIVIVGGGAGGLELATALGNKYGKSDAVRVTLVDRSRTHIWKPLLHAIAAGSLRRSQHELNYLAQAHWHGFHYRLGEMNGLDRARKVIKLAPVIDDEGREINPESELAYDTLVIAIGSVTNDFGTPGARDHAVPLETPEQASRFNKRMVNACLRAQHQHAPIEPGQLHVAIIGAGATGTELAAELHHTAREIIAYGLDKIDPEHDLKIVLIEAAPRILPALPPRISDATLKLLLDLGVEVRTGARVAEVLDHAVRLADGEVIPSELVVWAAGVRAPDFLEGIDGLDTNRINQLVVRPTLQTTRDDNVFGMGDCAACAIPGYENGVPPRAQAAHQEAEFMLEQIEKRLKGEPLGEFRYRDLGSLVSLGKYSAVGNLMGSLVGKSFLIEGYFARFMYRSLYKMHEAALYGRGRTLLSVLSGSTRPTPTVKLHLEHHHHHH”, the “soluble on expression in E. coli” value is reported as “not soluble”.
With “MSDLKNLILNSSILLDTSSTVQNDLNPEQLINVHEDSDGGRDLLTPESFILLMAEILSTNNADTICEYEHQNSADNKVLQNLQFKEVEEDEQIEGLNEQKKSLDNPLWHDVDLPVINEISGNQCEGQFESTLEKNVALTWINSENFQPPIVKPENQTDETYKIWDSEITSIESGKLKLDFPKADYDGNNINPYQKEAINQPGNDSSKNHQLIKGNDSFPILEDIKTNAEPGTKAIKSEVEATKVGTEIPGSSFQMNQKAGSDIQPPVVSNSHIPKNFSIPIHVNHSQWSEQLSEHIVWLGHQDVKSALIKIHPEELGPLEINVKVVKDNASVNISTHSVYVKEIVDQAIPRLREMMAQQGINLSEVHIGTDTSSRQGSQKNHHAEIDLIQSAEDKNKITSLTRHLPKGLVDYFA” the “soluble on expression in E. coli” value was “not soluble”.
